Target: CAPS1 (calcium-dependent activator protein for secretion, CADPS) (rat (endogenous in rat brain)) (UniProt Q62717)
Assay: affinity purification with mass spectrometry; CAPS1 immunoprecipitate of detergent extract resolved by SDS-PAGE; Coomassie-stained bands seen in the CAPS1 but not the control immunoprecipitate excised, in-gel digests, LC-MS/MS

Sequence of CAPS1 (calcium-dependent activator protein for secretion, CADPS) (rat (endogenous in rat brain)) (Q62717 whole entry): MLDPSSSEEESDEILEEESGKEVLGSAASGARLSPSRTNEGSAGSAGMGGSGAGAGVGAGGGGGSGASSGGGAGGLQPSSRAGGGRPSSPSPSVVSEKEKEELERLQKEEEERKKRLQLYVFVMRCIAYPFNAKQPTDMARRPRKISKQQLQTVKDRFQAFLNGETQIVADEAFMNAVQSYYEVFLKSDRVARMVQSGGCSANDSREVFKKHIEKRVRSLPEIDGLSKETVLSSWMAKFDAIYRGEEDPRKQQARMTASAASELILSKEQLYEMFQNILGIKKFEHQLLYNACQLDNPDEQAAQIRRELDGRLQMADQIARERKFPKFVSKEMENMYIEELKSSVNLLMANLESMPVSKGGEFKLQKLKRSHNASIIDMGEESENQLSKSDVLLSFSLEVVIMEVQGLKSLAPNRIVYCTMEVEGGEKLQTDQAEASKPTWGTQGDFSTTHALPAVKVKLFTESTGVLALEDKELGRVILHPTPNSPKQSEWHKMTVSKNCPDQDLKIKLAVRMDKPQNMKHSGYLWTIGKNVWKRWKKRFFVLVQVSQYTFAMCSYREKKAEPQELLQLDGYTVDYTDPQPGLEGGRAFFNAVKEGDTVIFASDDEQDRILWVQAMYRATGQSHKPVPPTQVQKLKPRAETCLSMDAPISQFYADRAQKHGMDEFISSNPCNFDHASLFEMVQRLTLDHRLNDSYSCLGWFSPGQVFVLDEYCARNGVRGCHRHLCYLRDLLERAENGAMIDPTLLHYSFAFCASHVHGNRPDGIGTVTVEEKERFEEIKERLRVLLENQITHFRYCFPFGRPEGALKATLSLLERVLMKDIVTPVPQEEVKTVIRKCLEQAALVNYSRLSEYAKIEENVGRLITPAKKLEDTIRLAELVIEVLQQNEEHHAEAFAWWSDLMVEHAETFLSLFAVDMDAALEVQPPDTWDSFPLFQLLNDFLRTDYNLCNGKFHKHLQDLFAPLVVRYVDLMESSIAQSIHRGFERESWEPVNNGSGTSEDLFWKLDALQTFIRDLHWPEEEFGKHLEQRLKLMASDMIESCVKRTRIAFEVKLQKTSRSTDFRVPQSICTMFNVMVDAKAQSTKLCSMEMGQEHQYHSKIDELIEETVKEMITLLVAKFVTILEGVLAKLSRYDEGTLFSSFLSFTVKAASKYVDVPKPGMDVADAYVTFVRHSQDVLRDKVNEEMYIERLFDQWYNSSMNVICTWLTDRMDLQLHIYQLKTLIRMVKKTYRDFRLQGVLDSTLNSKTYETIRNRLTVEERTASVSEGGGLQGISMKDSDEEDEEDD

With “Rabconnectin3α (Rbcn3α) / Dmx-like 2 (DMXL2) (natural protein)” the stoichiometry relative to CAPS1 (bands of the immunoprecipitate) (Rbcn3 subunit : CAPS1) was 0.167.
